Test results published in patent publication US20100227824A1 (SYMTHERA CANADA, published 2010).

Tests used:
Test in all cases: micro-array, phage-presented peptide on printed CK
IL-8 (CXCL8) = molecular target: T1, IL-8 (CXCL8) (UniProt P10145 28-99, limits assumed)
T1 construct: also called IL-8(72aa); IL-8(77aa)
T1 sequence (looked up): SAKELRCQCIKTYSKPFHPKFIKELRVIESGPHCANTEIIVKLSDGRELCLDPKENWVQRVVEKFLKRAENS
Procedure: (§1) (1) Printing: Chemokine (CK) solution (in water) was serially diluted with Print Reagent (GenTel BioSurfaces USA) to final concentrations of 50 μg and 25 μg/ml. BSA/BSA-Biotin control solutions (in water) were diluted with Print Reagent to 100 μg/ml. Amplified stock of M13 phage control (M13KEgIII Cloning Vector, New England Biolabs, Cat.No.E8101S) was stored in Tris Buffered Saline (TBS; pH7.5, 4° C.) and diluted with Print Reagent to the working titre (10^8 pfu/μl). An automated spotting robot (16 pin print tool, 0.4mm head; BioRobotics, UK) was used to print the CK/BSA control/M13 control, 5 repeats per sample (CK 25 μg/ml and 50 μg/ml; BSA 100 μg/ml; M13 20 μl), on PATH Protein Microarray Slides (GenTel, Prod.No.2-1005/-1025) at […], and 50-70% relative humidity. Printed micro-array slides were stored at Room Temperature (RT) or 4° C. for at least 24 h before use.
(§2) (2) Blocking: Block Buffer (500 μl/partition; PATHblock, GenTel, Prod.No.2-1014) was applied to the slide for 1 hour at room temp (RT). After removal of Block Buffer, the slide was air dried for 25 minutes;
(§3) (11) Analysis: Quantitative analysis of micro-array was performed by the SpotReader program of Niles Scientific (USA) and presented as Relative Fluorescence (RF) as a function of CK concentration. Micro-array readout (Cy3 fluorescence) was quantified to determine the relative binding affinities of a CBP for the CKs and by inference, the specificity of the CBP for binding to a CK.

Mig (CXCL9) = molecular target: T2, Mig (CXCL9) (UniProt Q07325 23-125)
T2 construct: Bought chemokine
T2 sequence (looked up): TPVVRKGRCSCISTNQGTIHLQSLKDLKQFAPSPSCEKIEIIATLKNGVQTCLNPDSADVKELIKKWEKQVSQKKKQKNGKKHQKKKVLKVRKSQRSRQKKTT
Procedure: as §1, §2, §3

I-TAC (CXCL11) = molecular target: T3, I-TAC (CXCL11) (UniProt O14625 22-94)
T3 construct: Bought chemokine; also called I-TACK
T3 sequence (looked up): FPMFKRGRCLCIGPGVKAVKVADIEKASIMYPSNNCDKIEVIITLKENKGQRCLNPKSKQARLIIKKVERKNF
Procedure: as §1, §2, §3

I-309 (CCL1) = molecular target: T4, I-309 (CCL1) (UniProt P22362 23-96, limits assumed)
T4 construct: Bought chemokine
T4 sequence (looked up): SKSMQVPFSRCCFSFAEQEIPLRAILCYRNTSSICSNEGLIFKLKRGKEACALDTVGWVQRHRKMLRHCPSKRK
Procedure: as §1, §2, §3

MCP-2 (CCL8) = molecular target: T5, MCP-2 (CCL8) (UniProt P80075 24-99)
T5 construct: Bought chemokine
T5 sequence (looked up): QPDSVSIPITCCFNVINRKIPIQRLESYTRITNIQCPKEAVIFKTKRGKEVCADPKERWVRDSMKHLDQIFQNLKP
Procedure: as §1, §2, §3

MCP-4 (CCL13) = molecular target: T6, MCP-4 (CCL13) (UniProt Q99616 24-98)
T6 construct: Bought chemokine
T6 sequence (Q99616 24-98 limits assumed): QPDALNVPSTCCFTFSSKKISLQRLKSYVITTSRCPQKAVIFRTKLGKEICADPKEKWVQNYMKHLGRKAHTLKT
Procedure: as §1, §2, §3

Eotaxin 3 (CCL26) = molecular target: T7, Eotaxin 3 (CCL26) (UniProt Q9Y258 24-94)
T7 construct: Bought chemokine
T7 sequence (looked up): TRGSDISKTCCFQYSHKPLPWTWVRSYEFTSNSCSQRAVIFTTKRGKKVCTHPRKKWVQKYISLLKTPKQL
Procedure: as §1, §2, §3

SDF-1β (CXCL12) = molecular target: T8, SDF-1β (CXCL12) (UniProt P48061 22-93)
T8 construct: Beta isoform of CXCL12; also called SDFβ
T8 sequence (P48061 22-93 limits assumed): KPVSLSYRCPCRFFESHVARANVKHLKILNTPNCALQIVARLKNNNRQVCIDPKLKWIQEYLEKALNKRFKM
Procedure: as §1, §2, §3

BCA-1 (CXCL13) = molecular target: T9, BCA-1 (CXCL13) (UniProt O43927 23-109)
T9 construct: Bought chemokine
T9 sequence (looked up): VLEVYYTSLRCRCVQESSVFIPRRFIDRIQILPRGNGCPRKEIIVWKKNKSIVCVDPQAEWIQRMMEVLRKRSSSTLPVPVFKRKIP
Procedure: as §1, §2, §3

TECK (CCL25) = molecular target: T10, TECK (CCL25) (UniProt O15444 24-150)
T10 construct: Bought chemokine
T10 sequence (looked up): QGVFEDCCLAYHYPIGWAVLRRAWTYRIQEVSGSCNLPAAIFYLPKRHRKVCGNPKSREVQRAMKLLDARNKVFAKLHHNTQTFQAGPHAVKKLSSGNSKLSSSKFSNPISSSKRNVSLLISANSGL
Procedure: as §1, §2, §3

GRO-β (CXCL2) = molecular target: T11, GRO-β (CXCL2) (UniProt P19875 35-107)
T11 construct: Bought chemokine
T11 sequence (looked up): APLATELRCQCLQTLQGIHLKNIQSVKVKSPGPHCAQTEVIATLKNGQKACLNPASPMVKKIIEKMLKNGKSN
Procedure: as §1, §2, §3

RANTES (CCL5) = molecular target: T12, RANTES (CCL5) (UniProt P13501 24-91)
T12 construct: Bought chemokine
T12 sequence (looked up): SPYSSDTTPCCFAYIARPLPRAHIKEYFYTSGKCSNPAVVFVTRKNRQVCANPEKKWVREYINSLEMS
Procedure: as §1, §2, §3

Eotaxin (CCL11) = molecular target: T13, Eotaxin (CCL11) (UniProt P51671 24-97)
T13 construct: Bought chemokine
T13 sequence (P51671 24-97 limits assumed): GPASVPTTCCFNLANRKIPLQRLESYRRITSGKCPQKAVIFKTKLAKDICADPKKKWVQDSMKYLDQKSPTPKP
Procedure: as §1, §2, §3

Eotaxin 2 (CCL24) = molecular target: T14, Eotaxin 2 (CCL24) (UniProt O00175 27-104, limits assumed)
T14 construct: Bought chemokine
T14 sequence (looked up): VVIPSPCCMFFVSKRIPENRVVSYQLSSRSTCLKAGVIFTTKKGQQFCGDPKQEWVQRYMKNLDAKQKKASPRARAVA
Procedure: as §1, §2, §3

SDF-1α (CXCL12) = molecular target: T15, SDF-1α (CXCL12) (UniProt P48061-2 22-89)
T15 construct: Alpha isoform of CXCL12; also called SDFα
T15 sequence (P48061 22-89 limits assumed): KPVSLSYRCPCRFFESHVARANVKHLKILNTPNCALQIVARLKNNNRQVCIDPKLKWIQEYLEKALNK
Procedure: as §1, §2, §3

Exodus-2 (CCL21) = molecular target: T16, Exodus-2 (CCL21) (UniProt O00585 24-134)
T16 construct: Bought chemokine
T16 sequence (looked up): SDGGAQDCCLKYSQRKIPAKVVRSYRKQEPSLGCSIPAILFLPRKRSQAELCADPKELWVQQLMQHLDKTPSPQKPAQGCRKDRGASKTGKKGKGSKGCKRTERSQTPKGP
Procedure: as §1, §2, §3

Lymphotactin (XCL-1) = molecular target: T17, Lymphotactin (XCL-1) (UniProt P47992 23-114, limits assumed)
T17 construct: Bought chemokine
T17 sequence (looked up): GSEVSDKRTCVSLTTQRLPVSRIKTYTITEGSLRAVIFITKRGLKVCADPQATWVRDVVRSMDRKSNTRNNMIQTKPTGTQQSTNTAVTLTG
Procedure: as §1, §2, §3

MCP-1 (CCL2) = molecular target: T18, MCP-1 (CCL2) (UniProt P13500 24-99)
T18 construct: Bought chemokine
T18 sequence (P13500 24-99 limits assumed): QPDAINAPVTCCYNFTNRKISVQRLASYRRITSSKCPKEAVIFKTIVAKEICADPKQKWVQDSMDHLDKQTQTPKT
Procedure: as §1, §2, §3

MDC(69aa) (CCL22) = molecular target: T19, MDC(69aa) (CCL22) (UniProt O00626 25-93)
T19 construct: Bought chemokine
T19 sequence (looked up): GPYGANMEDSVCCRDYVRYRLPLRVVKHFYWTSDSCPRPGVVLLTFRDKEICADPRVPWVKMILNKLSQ
Procedure: as §1, §2, §3

CTAC (CCL27) = molecular target: T20, CTAC (CCL27) (UniProt Q9Y4X3 25-112)
T20 construct: Bought chemokine
T20 sequence (looked up): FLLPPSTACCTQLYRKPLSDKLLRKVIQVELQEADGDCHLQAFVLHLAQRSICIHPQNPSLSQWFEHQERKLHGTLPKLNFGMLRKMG
Procedure: as §1, §2, §3

IP-10 (CXCL10) = molecular target: T21, IP-10 (CXCL10) (UniProt P02778 22-98)
T21 construct: Bought chemokine
T21 sequence (looked up): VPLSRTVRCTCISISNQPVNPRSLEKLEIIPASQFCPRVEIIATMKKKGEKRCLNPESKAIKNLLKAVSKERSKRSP
Procedure: as §1, §2, §3

WVFGVHFCK [Phage-Presented Peptide 8.77 (Ph-p8.77)] was tested, and the “Relative Fluorescence Units (RFU)” value (IL-8 (CXCL8)) was over 15000 RFU, the “Relative Fluorescence Units (RFU)” value (Mig (CXCL9)) was over 15000 RFU and the “Relative Fluorescence Units (RFU)” value (I-TAC (CXCL11)) was over 15000 RFU. The “Relative Fluorescence Units (RFU)” value (I-309 (CCL1)) was over 15000 RFU, the “Relative Fluorescence Units (RFU)” value (MCP-2 (CCL8)) was over 15000 RFU and the “Relative Fluorescence Units (RFU)” value (MCP-4 (CCL13)) was over 15000 RFU. The “Relative Fluorescence Units (RFU)” value (Eotaxin 3 (CCL26)) was over 15000 RFU, the binding result (SDF-1β (CXCL12)) was “binds” and the binding result (BCA-1 (CXCL13)) was “binds”. WVFGVHFCK [Phage-Presented Peptide 8.77 (Ph-p8.77)]: binds (TECK (CCL25)).

DYDY [Phage-Presented Peptide 32 (Ph-p32)] was tested, and the “Relative Fluorescence Units (RFU)” value (GRO-β (CXCL2)) was over 10000 RFU, the “Relative Fluorescence Units (RFU)” value (IL-8 (CXCL8)) was over 10000 RFU and the “Relative Fluorescence Units (RFU)” value (Mig (CXCL9)) was over 10000 RFU. The “Relative Fluorescence Units (RFU)” value (I-TAC (CXCL11)) was over 10000 RFU, the “Relative Fluorescence Units (RFU)” value (I-309 (CCL1)) was over 10000 RFU and the “Relative Fluorescence Units (RFU)” value (MCP-2 (CCL8)) was over 10000 RFU. For the same binder, the “Relative Fluorescence Units (RFU)” value (MCP-4 (CCL13)) was over 10000 RFU, the “Relative Fluorescence Units (RFU)” value (RANTES (CCL5)) was over 10000 RFU and the “Relative Fluorescence Units (RFU)” value (Eotaxin (CCL11)) was over 10000 RFU. The “Relative Fluorescence Units (RFU)” value (Eotaxin 2 (CCL24)) was over 10000 RFU, the “Relative Fluorescence Units (RFU)” value (Eotaxin 3 (CCL26)) was over 10000 RFU and the binding result (SDF-1α (CXCL12)) was “binds”. DYDY [Phage-Presented Peptide 32 (Ph-p32)]: binds (SDF-1β (CXCL12)); binds (BCA-1 (CXCL13)); binds (Exodus-2 (CCL21)). DYDY [Phage-Presented Peptide 32 (Ph-p32)]: binds (TECK (CCL25)); binds (Lymphotactin (XCL-1)).

In the case of DYDYGAPC [Phage-Presented Peptide 30 (Ph-p30)], the “Relative Fluorescence Units (RFU)” value (IL-8 (CXCL8)) is reported as over 15000 RFU, the “Relative Fluorescence Units (RFU)” value (Mig (CXCL9)) is reported as over 15000 RFU and the “Relative Fluorescence Units (RFU)” value (I-TAC (CXCL11)) is reported as over 15000 RFU. The “Relative Fluorescence Units (RFU)” value (I-309 (CCL1)) was over 15000 RFU, the “Relative Fluorescence Units (RFU)” value (MCP-1 (CCL2)) was over 15000 RFU and the “Relative Fluorescence Units (RFU)” value (MCP-2 (CCL8)) was over 15000 RFU. The “Relative Fluorescence Units (RFU)” value (MCP-4 (CCL13)) was over 15000 RFU, the “Relative Fluorescence Units (RFU)” value (RANTES (CCL5)) was over 15000 RFU and the “Relative Fluorescence Units (RFU)” value (Eotaxin (CCL11)) was over 15000 RFU. The “Relative Fluorescence Units (RFU)” value (Eotaxin 2 (CCL24)) was over 15000 RFU, the “Relative Fluorescence Units (RFU)” value (Eotaxin 3 (CCL26)) was over 15000 RFU and the binding result (MDC(69aa) (CCL22)) was “binds”. DYDYGAPC [Phage-Presented Peptide 30 (Ph-p30)]: binds (SDF-1α (CXCL12)); binds (SDF-1β (CXCL12)); binds (BCA-1 (CXCL13)). DYDYGAPC [Phage-Presented Peptide 30 (Ph-p30)]: binds (Exodus-2 (CCL21)); binds (TECK (CCL25)); binds (CTAC (CCL27)). DYDYGAPC [Phage-Presented Peptide 30 (Ph-p30)]: binds (Lymphotactin (XCL-1)).

In the case of NAMCK [Phage-Presented Peptide 8.11 (Ph-p8.11)], the “Relative Fluorescence Units (RFU)” value (IP-10 (CXCL10)) is reported as over 10000 RFU, the “Relative Fluorescence Units (RFU)” value (I-TAC (CXCL11)) is reported as over 10000 RFU and the “Relative Fluorescence Units (RFU)” value (Eotaxin 3 (CCL26)) is reported as over 10000 RFU. NAMCK [Phage-Presented Peptide 8.11 (Ph-p8.11)]: binds (SDF-1α (CXCL12)); binds (SDF-1β (CXCL12)); binds (BCA-1 (CXCL13)). NAMCK [Phage-Presented Peptide 8.11 (Ph-p8.11)]: binds (Exodus-2 (CCL21)); binds (TECK (CCL25)); binds (CTAC (CCL27)).
